These results are taken from patent US7049395 (YALE UNIVERSITY, dated 2006).

B1: NEMO-(197-419) (other, human, UniProt Q9Y6K9 197-419, looked up)
chain: VQVDQLRMQGQSVEAALRMERQAASEEKRKLAQLQVAYHQLFQEYDNHIKSSVVGSERKRGMQLEDLKQQLQQAEEALVAKQEVIDKLKEEAEQHKIVMETVPVLKAQADIYKADFQAERQAREKLAEKKELLQEQLEQLQREYSKLKASCQESARIEDMRKRHVEVSQAPLPPAPAYLSSPLALPSQRRSPPEEPPDFCCPKCQYQAPDMDTLQIHVMECIE
notes: range 197-419; [35S]-labelled in vitro translated; also transfected in COS or HEK293 cells
B2: NEMO-(1-196) (other, human, UniProt Q9Y6K9 1-196, looked up)
chain: MNRHLWKSQLCEMVQPSGGPAADQDVLGEESPLGKPAMLHLPSEQGAPETLQRCLEENQELRDAIRQSNQILRERCEELLHFQASQREEKEFLMCKFQEARKLVERLGLEKLDLKRQKEQALREVEHLKRCQQQMAEDKASVKAQVTSLLGELQESQSRLEAATKECQALEGRARAASEQARQLESEREALQQQHS
notes: [35S]-labelled in vitro translated; also transfected in COS or HEK293 cells
B3: IKKβ-(644-756) (enzyme, human, UniProt O14920 644-756, looked up)
chain: VRLQEKRQKELWNLLKIACSKVRGPVSGSPDSMNASRLSQPGQLMSQPSTASNSLPEPAKKSEELVAEAHNLCTLLENAIQDTVREQDQSFTALDWSWLQTEEEEHSCLEQAS
B4: GST-IKKβ-(644-756) (other, human, UniProt O14920 644-756, looked up)
chain: B3 chain
notes: bacterially expressed; not shown: glutathione S-transferase (GST) as encoded by vector pGEX-4T1 (Pharmacia)

One assay concerns the target T1, FLAG-tagged IKKβ (human, UniProt O14920 1-756).
T1 construct: expressed in transfected COS, HEK293 or HeLa cells; also called IKKβ-FLAG; FLAG-IKKβ
T1 sequence (looked up): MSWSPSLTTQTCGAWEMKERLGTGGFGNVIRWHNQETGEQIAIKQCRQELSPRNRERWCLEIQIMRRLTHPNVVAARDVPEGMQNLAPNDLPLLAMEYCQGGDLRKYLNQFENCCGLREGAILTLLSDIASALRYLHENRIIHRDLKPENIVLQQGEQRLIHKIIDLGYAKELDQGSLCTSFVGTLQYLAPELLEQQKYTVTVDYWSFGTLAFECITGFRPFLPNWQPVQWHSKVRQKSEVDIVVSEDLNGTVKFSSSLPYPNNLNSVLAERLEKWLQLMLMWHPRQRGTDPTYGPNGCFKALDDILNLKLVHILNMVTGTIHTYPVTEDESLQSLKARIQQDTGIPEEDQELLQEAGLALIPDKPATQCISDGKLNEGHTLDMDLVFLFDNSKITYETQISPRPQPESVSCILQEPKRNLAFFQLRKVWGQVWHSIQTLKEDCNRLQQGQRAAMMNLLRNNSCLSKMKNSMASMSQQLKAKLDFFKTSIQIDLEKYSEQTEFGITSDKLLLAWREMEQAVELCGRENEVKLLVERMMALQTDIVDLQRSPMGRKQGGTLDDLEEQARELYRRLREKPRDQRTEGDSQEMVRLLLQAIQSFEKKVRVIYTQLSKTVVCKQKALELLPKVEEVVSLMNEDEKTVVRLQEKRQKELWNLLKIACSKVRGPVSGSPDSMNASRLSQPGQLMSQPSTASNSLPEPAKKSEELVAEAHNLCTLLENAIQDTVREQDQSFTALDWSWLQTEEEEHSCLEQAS
The experiment in a line: co-immunoprecipitation from transfected COS or HEK293 cells. On the procedure: For all immunoprecipitations HeLa or COS cells grown in six well trays were lysed in 500 µl TNT. FLAG-tagged proteins were precipitated from lysate of transfected cells for two hours at 4° C. using 20 µl of anti-FLAG (M2)-conjugated agarose beads (Sigma). […] For immunoblotting, precipitates were washed three times with TNT, twice with PBS then suspended in SDS-sample buffer. Proteins were separated by SDS-PAGE (10%), transferred to PVDF membranes and visualized by enhanced chemiluminesence (Amersham-Pharmacia).

Assay [1] addresses T2, GST alone (UniProt P08515 1-218 = GST).
T2 construct: control bait in the GST pull-downs
The experiment in a line: GST pull-down of [35S]-labelled NEMO truncations. An excerpt:
(§1) Equal amounts of each protein were used for subsequent GST pull-down analyses.

Assay [2] deals with T2, GST alone. Description: GST pull-down of in vitro translated protein.
The target of the assay “NEMO-(197-419)” is B1. Description: GST pull-down with GST-IKKβ-(644-756).
Description: as §1

The target in a further assay is T3, NEMO-(86-419) (human, UniProt Q9Y6K9 86-419).
T3 construct: range 86-419; [35S]-labelled in vitro translated; also transfected in COS or HEK293 cells
The experiment in a line: GST pull-down with GST-IKKβ-(644-756).
Description: as §1

T2 sequence (P08515 whole entry): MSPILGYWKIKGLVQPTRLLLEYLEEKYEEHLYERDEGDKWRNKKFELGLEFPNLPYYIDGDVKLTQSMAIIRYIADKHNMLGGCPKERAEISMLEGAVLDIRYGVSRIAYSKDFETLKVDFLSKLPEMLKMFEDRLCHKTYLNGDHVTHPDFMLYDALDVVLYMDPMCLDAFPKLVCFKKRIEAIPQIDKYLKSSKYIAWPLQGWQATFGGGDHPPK

As to B1, the binding result with FLAG-tagged IKKβ was “no binding”.
On to B2, for which, in the assay with GST alone [1], the binding result was “no binding”.
With B3, the binding result in the assay with GST alone [2] is “no binding”.
B4: the binding result with NEMO-(197-419) and with NEMO-(86-419) was “no binding” in each case.
